Results taken from patent publication US20250122508A1 (K2B THERAPEUTICS, published 2025).

B1: mouse CD47 on the surface of mouse red blood cells and CT26.CL25 cells (receptor, UniProt Q61735 19-303, looked up)
chain: QLLFSNVNSIEFTSCNETVVIPCIVRNVEAQSTEEMFVKWKLNKSYIFIYDGNKNSTTTDQNFTSAKISVSDLINGIASLKMDKRDAMVGNYTCEVTELSREGKTVIELKNRTVSWFSPNEKILIVIFPILAILLFWGKFGILTLKYKSSHTNKRIILLLVAGLVLTVIVVVGAILLIPGEKPVKNASGLGLIVISTGILILLQYNVFMTAFGMTSFTIAILITQVLGYVLALVGLCLCIMACEPVHGPLLISGLGIIALAELLGLVYMKFVASNQRTIQPPRNR
notes: whole, on cells; also called CD47 present on the surface of the CT26.CL25 cells

Tests used:
[1] = molecular target: B1; experiment: flow cytometry of CT26.CL25 cells after incubation with mouse RBC loaded with 200 pmol labeled vSIRPα
Protocol: (§1) Each cell line, grown independently in a cell culture dish, was detached from the dish with trypsin-EDTA. The cells from each dish were then washed with DPBS, counted, and diluted to 10⁵ cells/100 μl PBS. 4 μl of the FAM-vSIRPα-siRNA/RBC resuspension (totaling 10³ RBC and 100 pmol of the vSIRPα-siRNA) was mixed, independently, with each 100 μl dilution of CT26.CL25 cells and CaCO2 cells. Each mixture was incubated for 30 minutes at room temperature (20-25° C.).
(§2) vSIRPα labeled with Cy5.5 was tested for its ability to be transferred from RBC to CD47 present on the surface of CT26.CL25 cells. Experiments were carried out as in Example 2, except that 200 pmol of the labeled vSIRPα, rather than 500 pmol of conjugate, was incubated with the RBC.

[2] = molecular target: T1, Murine TSP-1 (7859-TH, R&D Systems) labeled with Cy5.5 (murine, UniProt P35441 19-1170, Cy5.5 label (site not stated)); experiment: flow cytometry of CT26.CL25 cells after incubation with mouse RBC loaded with 5 µg labeled murine TSP-1
T1 construct: also called Cy5.5-labeled murine thrombospondin-1; Cy5.5 labeled TSP-1
Protocol: as §1
as §2, with “Murine TSP-1 (7859-TH, R&D Systems) labeled” for “vSIRPα labeled”, “that 5 μg” for “that 200 pmol”, “of Cy5.5” for “of the”, “labeled TSP-1,” for “labeled vSIRPα,”

T1 sequence (P35441 19-1170 limits assumed): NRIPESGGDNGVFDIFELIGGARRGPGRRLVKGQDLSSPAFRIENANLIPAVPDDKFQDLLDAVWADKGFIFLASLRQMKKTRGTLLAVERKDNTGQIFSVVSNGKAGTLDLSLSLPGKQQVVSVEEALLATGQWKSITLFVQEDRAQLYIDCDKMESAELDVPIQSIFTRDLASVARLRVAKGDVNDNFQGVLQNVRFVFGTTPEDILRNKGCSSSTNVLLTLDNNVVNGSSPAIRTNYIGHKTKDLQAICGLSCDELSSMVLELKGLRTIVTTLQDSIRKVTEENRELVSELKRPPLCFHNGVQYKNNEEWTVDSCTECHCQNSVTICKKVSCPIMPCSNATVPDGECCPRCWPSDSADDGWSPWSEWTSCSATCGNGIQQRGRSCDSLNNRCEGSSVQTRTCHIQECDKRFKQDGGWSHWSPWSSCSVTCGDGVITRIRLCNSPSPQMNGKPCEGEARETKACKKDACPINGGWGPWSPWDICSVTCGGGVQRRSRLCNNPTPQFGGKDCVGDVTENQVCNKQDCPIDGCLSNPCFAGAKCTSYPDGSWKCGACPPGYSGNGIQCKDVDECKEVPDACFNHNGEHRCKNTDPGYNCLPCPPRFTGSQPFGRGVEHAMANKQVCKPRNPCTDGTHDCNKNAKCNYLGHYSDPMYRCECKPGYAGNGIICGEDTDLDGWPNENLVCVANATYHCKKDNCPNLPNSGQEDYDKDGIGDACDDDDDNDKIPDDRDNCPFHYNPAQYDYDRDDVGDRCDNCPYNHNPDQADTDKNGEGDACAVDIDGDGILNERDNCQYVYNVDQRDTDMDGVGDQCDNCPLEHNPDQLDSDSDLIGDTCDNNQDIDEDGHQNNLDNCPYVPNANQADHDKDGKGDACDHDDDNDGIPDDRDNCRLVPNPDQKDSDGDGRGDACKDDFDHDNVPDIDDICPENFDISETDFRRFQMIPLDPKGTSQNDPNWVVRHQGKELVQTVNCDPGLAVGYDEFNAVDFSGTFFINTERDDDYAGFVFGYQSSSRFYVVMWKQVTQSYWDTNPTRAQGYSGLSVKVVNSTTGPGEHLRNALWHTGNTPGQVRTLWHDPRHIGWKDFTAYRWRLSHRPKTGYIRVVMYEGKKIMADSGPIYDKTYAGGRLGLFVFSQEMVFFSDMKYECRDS

Row | Binder | binding result [1] | binding result [2]
1 | vSIRPα labeled with Cy5.5 (receptor, Cy5.5 label (site not stated), also called Cy5.5-labeled vSIRPα) EEELQIIQPDKSVLVAAGETATLRCTITSLFPVGPIQWFRGAGPGRVLIYNQRQGPFPRVTTVSDTTKRNNMDFSIRIGNITPADAGTYYCIKFRKGSPDDVEFKSGAGTELSVRAKP | binds | 
2 | B1 |  | binds
